Measured values from patent publication US20030224390A1, “Method of identifying conformation-sensitive binding peptides and uses thereof” (Karo Bio AB, priority 2000, published 2003).

Experiments:
estrogen receptor (ER) α = molecular target: T1, estrogen receptor (ER) α (Homo sapiens, UniProt P03372); experiment: Yeast two-hybrid screening of LXXLL peptide library, ligand induced β-galactosidase activity (FIG. 1, Table 501); type: cell-based; conditions: with and without estradiol
T1 construct: expressed in transfected cells; host or cells: Saccharomyces cerevisiae PJ69-α
T1 sequence (P03372 1-595): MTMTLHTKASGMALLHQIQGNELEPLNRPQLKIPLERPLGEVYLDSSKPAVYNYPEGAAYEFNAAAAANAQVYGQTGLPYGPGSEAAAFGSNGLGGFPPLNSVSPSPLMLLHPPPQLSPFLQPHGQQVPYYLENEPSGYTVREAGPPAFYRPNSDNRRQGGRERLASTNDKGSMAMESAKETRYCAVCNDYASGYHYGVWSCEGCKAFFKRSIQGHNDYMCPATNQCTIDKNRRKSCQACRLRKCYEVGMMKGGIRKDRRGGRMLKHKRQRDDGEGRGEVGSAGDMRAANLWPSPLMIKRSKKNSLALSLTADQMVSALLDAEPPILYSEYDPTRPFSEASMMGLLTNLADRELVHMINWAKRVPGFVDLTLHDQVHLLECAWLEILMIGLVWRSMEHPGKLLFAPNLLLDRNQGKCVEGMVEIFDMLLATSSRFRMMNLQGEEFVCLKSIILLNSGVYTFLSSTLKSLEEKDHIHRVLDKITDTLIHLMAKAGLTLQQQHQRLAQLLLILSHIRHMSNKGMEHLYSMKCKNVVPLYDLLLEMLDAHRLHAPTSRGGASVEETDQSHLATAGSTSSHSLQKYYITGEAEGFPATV
Source text: A directed peptide library (X5LXXLLX5, SEQ ID NO:264) containing the LXXLL motif (previously identified as common in peptides binding estrogen receptor) as a carboxy-terminal fusion to the Gal4 DNA binding domain was constructed with an overall complexity of […] independent peptides. The LXXLL motif library peptides were encoded by the degenerate DNA sequence (NNK)5TTA(NNK)2(TTA)2(NNK)5 (SEQ ID NO:265); TTA is the preferred Leu codon in yeast. NNK encodes a stop codon so a few of the peptides generated will be shorter than 15 a.a. The shortest interacting peptides will likely be 10-mers. This library was transformed into the Saccharomyces cerevisiae PJ69-α yeast strain expressing estrogen receptor (ER) α as a carboxy-terminal fusion to the Gal4 activation domain. […] Those colonies able to grow by inducing the integrated GAL4 driven HIS3 reporter were transferred into 0.25 ml of rich media in a 0.5 ml block.
Cells were pelleted by centrifugation, the media removed and the cells lysed with buffer containing 2.5% CHAPS (3-(3-Cholamidopropyl) dimethyl ammonio-1-propanesulfonate) detergent. A preliminary OD600 was determined to normalize β-galactosidase activity of each well with cell density. […] Yeast clones that generated a value equal to or greater than 0.5 were verified using the same method. Verified clones were then subjected to a final test of ligand induced β-galactosidase activity. […] Ten clones displaying the greatest ligand induced β-galactosidase activity were studied further.
Plasmids containing the peptides were isolated from the yeast cells and the amino acid sequences (Table 501) deduced by DNA sequencing of the library inserts. In Table 501, the underlined sequence is encoded by vector DNA, and the “*” represents the endogenous stop codon of the vector, and is downstream of the cloning site. Several peptides contain the vector-encoded LDLQPS (SEQ ID NO:266) sequence. B5H10 is believed to be the result of a double insert, with the second part being encoded by the complementary sequence. Peptides B1A1 and B1G8 were shorter than the other isolates because the clones encoding them carry a premature stop codon, which is inherent in the NNK library. Because of a frame shift, neither peptide B6A1 nor B3E2 contained the sequence encoded by vector DNA.

ERβ = ERβ (Homo sapiens, UniProt Q92731); experiment: Phage ELISA fingerprint: peptide binding to immobilized ER β with modulator present (Table 14B)
[1] = molecular target: T2, Gal4 transcriptional activation domain (AD) fused in frame with AR (pGAD-C2) (yeast, UniProt P10275 1-920, limits assumed); experiment: cell-based or functional assay
T2 sequence (looked up): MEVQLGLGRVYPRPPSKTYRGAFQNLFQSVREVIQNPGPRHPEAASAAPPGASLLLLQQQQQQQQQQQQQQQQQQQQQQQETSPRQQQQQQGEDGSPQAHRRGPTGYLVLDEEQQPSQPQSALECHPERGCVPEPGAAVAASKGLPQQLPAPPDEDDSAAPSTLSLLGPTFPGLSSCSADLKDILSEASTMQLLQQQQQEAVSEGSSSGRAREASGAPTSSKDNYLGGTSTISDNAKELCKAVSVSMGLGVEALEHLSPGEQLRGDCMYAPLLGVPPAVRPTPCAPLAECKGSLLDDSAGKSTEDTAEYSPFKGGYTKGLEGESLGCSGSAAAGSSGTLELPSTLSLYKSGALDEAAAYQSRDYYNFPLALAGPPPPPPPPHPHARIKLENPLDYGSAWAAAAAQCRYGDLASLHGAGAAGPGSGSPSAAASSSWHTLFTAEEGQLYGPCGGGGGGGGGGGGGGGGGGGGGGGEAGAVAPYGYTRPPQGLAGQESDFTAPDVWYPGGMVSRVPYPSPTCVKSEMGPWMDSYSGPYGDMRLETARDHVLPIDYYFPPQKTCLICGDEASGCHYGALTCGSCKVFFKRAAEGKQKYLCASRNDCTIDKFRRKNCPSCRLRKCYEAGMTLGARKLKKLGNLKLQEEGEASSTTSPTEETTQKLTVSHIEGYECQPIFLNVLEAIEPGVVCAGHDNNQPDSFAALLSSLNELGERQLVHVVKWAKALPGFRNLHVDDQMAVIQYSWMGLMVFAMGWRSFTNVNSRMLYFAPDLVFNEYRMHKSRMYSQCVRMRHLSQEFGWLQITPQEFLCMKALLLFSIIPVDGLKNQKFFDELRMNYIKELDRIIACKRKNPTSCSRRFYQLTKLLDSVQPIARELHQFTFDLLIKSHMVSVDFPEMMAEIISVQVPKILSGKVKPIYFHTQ

[2] = molecular target: T2, Gal4 transcriptional activation domain …; experiment: cell-based or functional assay; remark: listed apart in the source
[3] = molecular target: ER β (immobilized, in vitro phage assays) (UniProt Q92731 1-530, limits assumed); experiment: phage ELISA; ICI 182,780 1 µM
Sequence of ER β (immobilized, in vitro phage assays) (Q92731 whole entry): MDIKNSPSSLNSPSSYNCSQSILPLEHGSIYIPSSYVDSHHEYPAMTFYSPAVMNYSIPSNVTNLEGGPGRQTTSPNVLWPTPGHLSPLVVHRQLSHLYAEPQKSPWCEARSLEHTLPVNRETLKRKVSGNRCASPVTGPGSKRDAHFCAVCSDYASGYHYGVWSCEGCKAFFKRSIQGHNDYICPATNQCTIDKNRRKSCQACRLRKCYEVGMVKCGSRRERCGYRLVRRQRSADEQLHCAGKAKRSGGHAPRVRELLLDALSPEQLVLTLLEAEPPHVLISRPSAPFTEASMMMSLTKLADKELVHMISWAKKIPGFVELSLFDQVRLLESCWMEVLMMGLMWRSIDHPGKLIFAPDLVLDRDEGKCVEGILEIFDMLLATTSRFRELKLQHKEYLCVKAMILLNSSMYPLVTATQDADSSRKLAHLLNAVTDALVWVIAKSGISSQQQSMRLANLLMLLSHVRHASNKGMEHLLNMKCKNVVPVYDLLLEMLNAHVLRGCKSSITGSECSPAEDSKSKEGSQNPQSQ

Sequence of ERβ (Q92731 whole entry, species assumed, the tested form may be a part): as the sequence (Q92731 whole entry) above

## EFFRATHLLRLLRTDSALDLQPS* [B6F3]
Estrogen receptor (ER) α
  Fold Induction (ligand induced β-galactosidase activity): 3

## EFFRLRRLDRLLQDSFLLDLQPS* [B2G1]
Estrogen receptor (ER) α
  Fold Induction (ligand induced β-galactosidase activity): 12

## EFGCSAILRYLLRSPRDLDLQPS* [B5A2]
Estrogen receptor (ER) α
  Fold Induction (ligand induced β-galactosidase activity): 2.5

## EFGGSVLLRELLCCYDALEPTTTR [B3E2]
Estrogen receptor (ER) α
  Fold Induction (ligand induced β-galactosidase activity): 3

## EFSGVPILHMLLMLPSSLDLQOPS* [B4F6]
Estrogen receptor (ER) α
  Fold Induction (ligand induced β-galactosidase activity): 5

## EFSPPSSLLALLLGGKSLEPLPIRYKNVKRQFTSNSRGSVDLQPS [B5H10]
Estrogen receptor (ER) α
  Fold Induction (ligand induced β-galactosidase activity): 4.5

## EFTGSRLLLKLLRFPDSSTCSQA [B6A1]
Estrogen receptor (ER) α
  Fold Induction (ligand induced β-galactosidase activity): 3.5

## EFTSVSRLVTLLLQ* [B1G8]
Estrogen receptor (ER) α
  Fold Induction (ligand induced β-galactosidase activity): 6

## SSEACVGRWMLCEQLGVSR [12Bβ]
ERβ; nafoxidine (10 μM)
  Class Specific Fingerprint on ERβ: peptide binding, Nafoxidine present: 5

## SSNHQSSRLIELLSR [#4 ER./E2]
ERβ; 4-OH tamoxifen (1 μM)
  Class Specific Fingerprint on ERβ: peptide binding, 4-OH Tamoxifen present: 0
ERβ; ICI 182,780 (1 μM)
  Class Specific Fingerprint on ERβ: peptide binding, ICI 182,780 present: 0
ERβ; clomiphene (10 μM)
  Class Specific Fingerprint on ERβ: peptide binding, Clomiphene present: 0
ERβ; raloxifene (1 μM)
  Class Specific Fingerprint on ERβ: peptide binding, Raloxifene present: 0

B1: B2A7 (peptide)
chain: MKLLSSIEQACDICRLKKLKCSKEKPKCAKCLKNNWECRYSPKTKRSPLTRAHLTEVESRLERLEQLFLLIFPREDLDMILKMDSLQDIKALLTGLFVQDNVNKDAVTDRLASVETDMPLTLRQHRISATSSSEESSNKGQRQLTVSEFPELLAMTRWGRHAALLEPQRLPPPRTTTQPQTEFERMFFFTRPMRTTGLLDLQPS
[1]
  Fold induction, yeast two-hybrid: 5 fold
[2]
  β-galactosidase activity, yeast two-hybrid; CPA: 0.292
  β-galactosidase activity, yeast two-hybrid; DHT: 1.72
  β-galactosidase activity, yeast two-hybrid; No Lig: 0.371
  β-galactosidase activity, yeast two-hybrid; RU: 0.5

B2: M2H3 (peptide)
chain: MKLLSSIEQACDICRLKKLKCSKEKPKCAKCLKNNWECRYSPKTKRSPLTRAHLTEVESRLERLEQLFLLIFPREDLDMILKMDSLQDIKALLTGLFVQDNVNKDAVTDRLASVETDMPLTLRQHRISATSSSEESSNKGQRQLTVSEFRQSFVSEILGGGWLPLDLQPS
[1]
  Fold induction, yeast two-hybrid: 10 fold
[2]
  β-galactosidase activity, yeast two-hybrid; CPA: 8.59
  β-galactosidase activity, yeast two-hybrid; DHT: 24.1
  β-galactosidase activity, yeast two-hybrid; No Lig: 2.53
  β-galactosidase activity, yeast two-hybrid; RU: 6.8

B3: α/β V (AB5) (peptide)
peptide: SSPGSREWFKDMLSR
notes: also called 14Tβ; 14T-β
[3]
  phage ELISA grade: 0

B4: β II (B2) (peptide)
peptide: SSLDLSQFPMTASFLRESR
notes: also called 35Eβ
[3]
  phage ELISA grade: 0

B5: M4D1 (peptide)
chain: MKLLSSIEQACDICRLKKLKCSKEKPKCAKCLKNNWECRYSPKTKRSPLTRAHLTEVESRLERLEQLFLLIFPREDLDMILKMDSLQDIKALLTGLFVQDNVNKDAVTDRLASVETDMPLTLRQHRISATSSSEESSNKGQRQLTVSEFRFPFHEMVREWESMGLERVRYAEP
[1]
  Fold induction, yeast two-hybrid: > 2 fold
[2]
  β-galactosidase activity, yeast two-hybrid; CPA: -0.0396
  β-galactosidase activity, yeast two-hybrid; DHT: 0.395
  β-galactosidase activity, yeast two-hybrid; No Lig: 0
  β-galactosidase activity, yeast two-hybrid; RU: 0.1

B6: B8A10 (peptide)
chain: MKLLSSIEQACDICRLKKLKCSKEKPKCAKCLKNNWECRYSPKTKRSPLTRAHLTEVESRLERLEQLFLLIFPREDLDMILKMDSLQDIKALLTGLFVQDNVNKDAVTDRLASVETDMPLTLRQHRISATSSSEESSNKGQRQLTVSEFVNWDAVVPWSELVALLDLQPS
[1]
  Fold induction, yeast two-hybrid: 1 fold
[2]
  β-galactosidase activity, yeast two-hybrid; CPA: 0.395
  β-galactosidase activity, yeast two-hybrid; DHT: 0.616
  β-galactosidase activity, yeast two-hybrid; No Lig: 0.875
  β-galactosidase activity, yeast two-hybrid; RU: 0.4
